From patent publication EP4659808A2 (Sanofi, dated 2025)

Biological target: T1, human beta-DG extracellular domain (human, UniProt Q14118 654-749, biotinylated in the Example 6 ELISA)
T1 construct: extracellular domain; Expression of the soluble human protein is not described; also called hBeta-DG; hbeta-DG
T1 sequence (looked up): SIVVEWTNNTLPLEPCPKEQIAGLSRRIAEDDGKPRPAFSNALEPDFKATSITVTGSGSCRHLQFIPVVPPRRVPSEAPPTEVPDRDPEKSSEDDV
Assay: SPR (Biacore T100), antibody captured on Protein G chip, BDG in flow, 1:1 model

| Kd | koff | kon | Binder |
| --- | --- | --- | --- |
| 2.08 nM | 0.00326 s⁻¹ | 1.57e+06 M⁻¹ s⁻¹ | triAb 3407 (bispecific antibody, human IgG1, kappa, Constant regions with knob-in-hole, NNAS, YTE and RF variants) light 1: EIVLTQSPDFLSVTPKEKVTLTCRASQSISNNLHWYQQKSDQSPKLLIKYASQSISGIPSRFSGSGSGTDFTLTINSVEAEDAATYFCQQSKSWPRTFGGGTKLEIKDKTHTEIVLTQSPDFLSVTPKEKVTLTCRASQSISNNLHWYQQKSDQSPKLLIKYASQSISGIPSRFSGSGSGTDFTLTINSVEAEDAATYFCQQSKSWPRTFGGGTKLEIKDKTHTRTVAAPSVFIFPPSDEQLKSGTASVVCLLNNFYPREAKVQWKVDNALQSGNSQESVTEQDSKDSTYSLSSTLTLSKADYEKHKVYACEVTHQGLSSPVTKSFNRGEC heavy 1: EVQLVESGGGLVKPGGSLRLSCAASGFTFSSYTMSWVRQAPGKGLEWVASISSSGSNTYYPDSVKGRFTISRDNAKNNLYLQMNSLRAEDTALYYCARFDYGSSLDSWGQGTLLTVSSDKTHTEVQLVESGGGLVKPGGSLRLSCAASGFTFSSYTMSWVRQAPGKGLEWVASISSSGSNTYYPDSVKGRFTISRDNAKNNLYLQMNSLRAEDTALYYCARFDYGSSLDSWGQGTLLTVSSDKTHTASTKGPSVFPLAPSSKSTSGGTAALGCLVKDYFPEPVTVSWNSGALTSGVHTFPAVLQSSGSLSSVVTVPSSSLGTQTYICNVNHKPSNTKVDKKVEPKSCDKTHTCPPCPAPELLGGPSVFLFPPKPKDTLYITREPEVTCVVVDVSHEDPEVKFNWYVDGVEVHNAKTKPREEQYNNASRVVSVLTVLHQDWLNGKEYKCKVSNKALPAPIEKTISKAKGQPREPQVYTLPPCRDELTKNQVSLWCLVKGFYPSDIAVEWESNGQPENNYKTTPPVLDSDGSFFKKLTVDKSRWQQGNVFSCSVMHEALHNHYTQKSLSLSPG heavy 2: QVQLVQSGAEVVKPGSSVKVSCEASGFTFTDSVITWVRQRPGQGLEWIGEIYPGSGNFYYNEKFQGRVTITADKSTSTAYMELSSLRSEDTAVYFCAMRRSSWGQGTLVTVSSASTKGPSVFPLAPSSKSTSGGTAALGCLVKDYFPEPVTVSWNSGALTSGVHTFPAVLQSSGSLSSVVTVPSSSLGTQTYICNVNHKPSNTKVDKKVEPKSCDKTHTCPPCPAPELLGGPSVFLFPPKPKDTLYITREPEVTCVVVDVSHEDPEVKFNWYVDGVEVHNAKTKPREEQYNNASRVVSVLTVLHQDWLNGKEYKCKVSNKALPAPIEKTISKAKGQPREPQVCTLPPSRDELTKNQVSLSCAVKGFYPSDIAVEWESNGQPENNYKTTPPVLDSDGSFFLVSKLTVDKSRWQQGNVFSCSVMHEALHNRFTQKSLSLSPG light 2: DVVMTQTPLSLSVTPGQPASISCKSSQTIVHSNSKTYLEWYLQKPGQSPQLLIYKVSSRFSGVPDRFSGSGSGTDFTLKISRVEAEDVGVYYCFQGSHVPLTFGQGTKLEIKRTVAAPSVFIFPPSDEQLKSGTASVVCLLNNFYPREAKVQWKVDNALQSGNSQESVTEQDSKDSTYSLSSTLTLSKADYEKHKVYACEVTHQGLSSPVTKSFNRGEC |
| 1.6 nM | 0.00433 s⁻¹ | 2.7e+06 M⁻¹ s⁻¹ | triAb 3423 (bispecific antibody, human IgG1, kappa) light 1: EIVLTQSPDFLSVTPKEKVTLSCRASQSISNYLHWYQQKSDQSPKLLIKYASQSISGIPSRFSGSGSGTDFTLSINSVEAEDAATYFCQQSKSWPRTFGGGTKLEIKDKTHTEIVLTQSPDFLSVTPKEKVTLTCRASQSISNNLHWYQQKSDQSPKLLIKYASQSISGIPSRFSGSGSGTDFTLTINSVEAEDAATYFCQQSKSWPRTFGGGTKLEIKDKTHTRTVAAPSVFIFPPSDEQLKSGTASVVCLLNNFYPREAKVQWKVDNALQSGNSQESVTEQDSKDSTYSLSSTLTLSKADYEKHKVYACEVTHQGLSSPVTKSFNRGEC heavy 1: EVQLVESGGGLVKPGGSLRLSCAASGFTFSSYTMSWVRQAPGKGLEWVASISSSGSNTYYPDSVKGRFTISRDNAKNNLYLQMNSLRAEDTALYYCARFDYGSSLDSWGQGTLLTVSSDKTHTEVQLVESGGGLVKPGGSLRLSCAASGFTFSSYTMSWVRQAPGKGLEWVASISSSGSNTYYPDSVKGRFTISRDNAKNNLYLQMNSLRAEDTALYYCARFDYGSSLDSWGQGTLLTVSSDKTHTASTKGPSVFPLAPSSKSTSGGTAALGCLVKDYFPEPVTVSWNSGALTSGVHTFPAVLQSSGSLSSVVTVPSSSLGTQTYICNVNHKPSNTKVDKKVEPKSCDKTHTCPPCPAPELLGGPSVFLFPPKPKDTLYITREPEVTCVVVDVSHEDPEVKFNWYVDGVEVHNAKTKPREEQYNNASRVVSVLTVLHQDWLNGKEYKCKVSNKALPAPIEKTISKAKGQPREPQVYTLPPCRDELTKNQVSLWCLVKGFYPSDIAVEWESNGQPENNYKTTPPVLDSDGSFFKKLTVDKSRWQQGNVFSCSVMHEALHNHYTQKSLSLSPG heavy 2: QVQLVQSGAEVVKPGSSVKVSCEASGFTFTDSVITWVRQRPGQGLEWIGEIYPGSGNFYYNEKFQGRVTITADKSTSTAYMELSSLRSEDTAVYFCAMRRSSWGQGTLVTVSSASTKGPSVFPLAPSSKSTSGGTAALGCLVKDYFPEPVTVSWNSGALTSGVHTFPAVLQSSGSLSSVVTVPSSSLGTQTYICNVNHKPSNTKVDKKVEPKSCDKTHTCPPCPAPELLGGPSVFLFPPKPKDTLYITREPEVTCVVVDVSHEDPEVKFNWYVDGVEVHNAKTKPREEQYNNASRVVSVLTVLHQDWLNGKEYKCKVSNKALPAPIEKTISKAKGQPREPQVCTLPPSRDELTKNQVSLSCAVKGFYPSDIAVEWESNGQPENNYKTTPPVLDSDGSFFLVSKLTVDKSRWQQGNVFSCSVMHEALHNRFTQKSLSLSPG light 2: DVVMTQTPLSLSVTPGQPASISCKSSQTIVHSNSKTYLEWYLQKPGQSPQLLIYKVSSRFSGVPDRFSGSGSGTDFTLKISRVEAEDVGVYYCFQGSHVPLTFGQGTKLEIKRTVAAPSVFIFPPSDEQLKSGTASVVCLLNNFYPREAKVQWKVDNALQSGNSQESVTEQDSKDSTYSLSSTLTLSKADYEKHKVYACEVTHQGLSSPVTKSFNRGEC |
| 1.87 nM | 0.0045 s⁻¹ | 2.41e+06 M⁻¹ s⁻¹ | triAb 3437 (bispecific antibody, human IgG1, kappa) light 1: EIVLTQSPDFLSVTPKEKVTLTCRASQSIGNNLHWYQQKSDQSPKLLIKYASQSISGIPSRFSGSGSGTDFTLTINSVEAEDAATYFCQQSKSWPRTFGGGTKLEIKDKTHTEIVLTQSPDFLSVTPKEKVTLSCRASQSISNYLHWYQQKSDQSPKLLIKYASQSISGIPSRFSGSGSGTDFTLSINSVEAEDAATYFCQQSKSWPRTFGGGTKLEIKDKTHTRTVAAPSVFIFPPSDEQLKSGTASVVCLLNNFYPREAKVQWKVDNALQSGNSQESVTEQDSKDSTYSLSSTLTLSKADYEKHKVYACEVTHQGLSSPVTKSFNRGEC heavy 1: EVQLVESGGGLVKPGGSLRLSCAASGFTFSSYTMSWVRQAPGKGLEWVASISSSGSNTYYPDSVKGRFTISRDNAKNNLYLQMNSLRAEDTALYYCARFDYGSSLDSWGQGTLLTVSSDKTHTEVQLVESGGGLVKPGGSLRLSCAASGFTFSSYTMSWVRQAPGKGLEWVASISSSGSNTYYPDSVKGRFTISRDNAKNNLYLQMNSLRAEDTALYYCARFDYGSSLDSWGQGTLLTVSSDKTHTASTKGPSVFPLAPSSKSTSGGTAALGCLVKDYFPEPVTVSWNSGALTSGVHTFPAVLQSSGSLSSVVTVPSSSLGTQTYICNVNHKPSNTKVDKKVEPKSCDKTHTCPPCPAPELLGGPSVFLFPPKPKDTLYITREPEVTCVVVDVSHEDPEVKFNWYVDGVEVHNAKTKPREEQYNNASRVVSVLTVLHQDWLNGKEYKCKVSNKALPAPIEKTISKAKGQPREPQVYTLPPCRDELTKNQVSLWCLVKGFYPSDIAVEWESNGQPENNYKTTPPVLDSDGSFFKKLTVDKSRWQQGNVFSCSVMHEALHNHYTQKSLSLSPG heavy 2: QVQLVQSGAEVVKPGSSVKVSCEASGFTFTDSVITWVRQRPGQGLEWIGEIYPGSGNFYYNEKFQGRVTITADKSTSTAYMELSSLRSEDTAVYFCAMRRSSWGQGTLVTVSSASTKGPSVFPLAPSSKSTSGGTAALGCLVKDYFPEPVTVSWNSGALTSGVHTFPAVLQSSGSLSSVVTVPSSSLGTQTYICNVNHKPSNTKVDKKVEPKSCDKTHTCPPCPAPELLGGPSVFLFPPKPKDTLYITREPEVTCVVVDVSHEDPEVKFNWYVDGVEVHNAKTKPREEQYNNASRVVSVLTVLHQDWLNGKEYKCKVSNKALPAPIEKTISKAKGQPREPQVCTLPPSRDELTKNQVSLSCAVKGFYPSDIAVEWESNGQPENNYKTTPPVLDSDGSFFLVSKLTVDKSRWQQGNVFSCSVMHEALHNRFTQKSLSLSPG light 2: DVVMTQTPLSLSVTPGQPASISCKSSQTIVHSNSKTYLEWYLQKPGQSPQLLIYKVSSRFSGVPDRFSGSGSGTDFTLKISRVEAEDVGVYYCFQGSHVPLTFGQGTKLEIKRTVAAPSVFIFPPSDEQLKSGTASVVCLLNNFYPREAKVQWKVDNALQSGNSQESVTEQDSKDSTYSLSSTLTLSKADYEKHKVYACEVTHQGLSSPVTKSFNRGEC |
